Reference: the supplement of paper PMC12764529
± gives the half width of the 95% confidence interval.

Test: folding stability dG unfold from chymotrypsin proteolysis; higher = more stable
Outline: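 Only designs with AlphaFold2 dimer inter-PAE above 15 were retained; each was a mini-protein under 80 residues with no cysteine, in a PA-tagged cDNA display construct. After digestion with trypsin and chymotrypsin and sequencing, K50 was inferred by Bayesian fitting of counts, and unfolding free energy was derived per protease or combined against a sequence-predicted unfolded-state K50 and a shared folded-state K50.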

Row | Sequence | folding stability dG unfold [kcal/mol]
1 | SAGGSEEKVFEFEVVEVTSVEVKEDGTVTIEVTVRLENGLLLTVRVTFDLATNEVTIEVELRPLPESAGGSA [r2_321_TrROS_Hall] | 4.49 ± 0.19
2 | SAGGSAGGSAGGSKTLTPEEIKKLLDEAKKKGYKTVKITVKNKNGKTYTFTIKIPKEDLSAGGSAGGSAGGS [r4_342_TrROS_Hall] | 3.13 ± 0.079
3 | SAGGSAGGSAGETVTLTLTVTVTRTYYDAETGEEVEQETETRTLTLTMSKEELERLLKELSAGGSAGGSAGG [r17_283_TrROS_Hall] | 4.66 ± 0.11
4 | SAGGSAGGSAGSLTFQLPNGTEITVTEITLEIKLPNGDVILIKITVDPEPPVTTEVTFVNSAGGSAGGSAGG [r11_804_JUSTAS] | 1.37 ± 0.09
5 | SAGGSAGGSPGKPKTIPVEMVFFNPEDGYFFEMRSEIYVPPDGNLQIDISIELYPVPPNAPLISAGGSAGGS [r12_116_TrROS] | 1.46 ± 0.039
6 | SAGGSAETLVITLPPELEGLSEEELLALLKALLPPGAEITEIRVERLPDGSLRVTVTVRVPPPEEPSAGGSA [r15_451_TrROS_Hall] | 2.18 ± 0.061
7 | SAGGSAGGSAGGKPKVIEIEITDKNGKKRKIKLIEKDGYVYLYDEKTGKLVKKFKLKDLSAGGSAGGSAGGS [r10_589_TrROS_Hall] | 3.92 ± 0.051
8 | SAMVLVKIELYDPENEEPLATAEFVVPEEDLEAFVEEAKKIFGVAEDAFIKVEAAPLEPLTDESGEEVLSAG [r14_297_TrMRF] | 1.786 ± 0.014
9 | NKAQKLARSLARKFMRPHGYPMEIDPENNSIRFPNGEPIMEIPIDIVLLDDDGKIVEEINIPIRIRMRPPKS [r1_318_TrROS] | 0.782 ± 0.27
10 | SAGGSAGGSADELLDKLLNHKWLRDAMEKAPPGMEEIDIELPDGGKIRIRRTPNGGFRLEPSAGGSAGGSAG [r3_124_TrROS] | 1.48 ± 0.081
11 | SAMLRIRVEYEDGRVEDIVIPLAGEDPPFGKEAVEEAAERIAKEVEEKYGLKNVKTEVEAFPVSPEELLSAG [r14_378_TrMRF] | 1.06 ± 0.2
12 | SAGGSAGGSKTIKIEIEKMSEEELKNLTAEEIAKLLGVKEVKVTKEKIEITLTEEELKKLEKKSAGGSAGGS [r12_178_TrROS_Hall] | 1.24 ± 0.022
13 | SAGGSATKELVLEIAEEIAPRFQKEGWPIKRVTVKVVRTPDGQVTIPVRIRFPDGKPIMQWNITIPSAGGSA [r15_232_TrROS] | 0.00828 ± 0.36
14 | SAGGSAMLENLPELDIKIKVEYKAEILPDGSLLIPAKIELEIGDKKFEFEAKILINPNGEITIEIGSAGGSA [r15_891_TrMRF] | 2.45 ± 0.31
15 | SAGLIKIERTGDKLTITIPLKGAPPGAQVRIMVFTDGKVEEHWIPPGKEVEITIPPDNIHIFIQIYPPDSAG [r5_867_TrROS] | 3.15 ± 0.14
16 | SAGGKIIAEGEFELEDGYVVRVKVEYDEETGELRVEVEVFEVEVELPEVEVKREFSDEELTEEEKEASAGGS [r8_461_TrROS_Hall] | 1.77 ± 0.17

Row | Sequence | folding stability dG unfold [kcal/mol]
17 | SAGMITLPTRGPEELIERLRAIAEELGLSEEDIEQFLRDLAEHATIEQDGDLLLITFQPPVPALPGEPESAG [r5_717_TrMRF] | 1.91 ± 0.037
18 | SAGGSAGGSAGGMVIRLEDGRTLVFETREEAEEAAKALAEELGLKEVKVEIVEVPLEELPSAGGSAGGSAGG [r7_839_TrROS_Hall] | 2.6 ± 0.032
19 | SAGGSAGGSAGGSTPSFTPVLELEFEFENDVVVRVRLYRLPDEDTYLLEVEVAPDSLKDSAGGSAGGSAGGS [r4_163_TrMRF] | 4.11 ± 0.1
20 | SAGTIHFMVPRDEMSDEEAEDIVNTIAKHFPGFKIDRIYWHKQPDPDGDPRRMYHVEIKIKIPLPPGMKSAG [r5_835_TrROS] | 2.41 ± 0.06
21 | SAGGMKTFTLENPPLAPPDRPLGGSTLKLPDGTVLVRINLPSGETILLPSYEELEKLKASGEPVSVTASSAG [r5_42_JUSTAS] | 0.254 ± 0.15
22 | SAGELKITIAVFRPVEKDENGKEVKVELVEVKTITISKEDLTEEEILKLAEELKKKFPNTVILVTIEPSAGG [r19_369_TrROS_Hall] | 2.93 ± 0.19
23 | SAGGMEIKVTVEKREDGYLVVTVEKAESKEEAIEAIKKELREKYPDAEITITDKDGNTIVIKLKDLKSAGGS [r8_236_TrROS_Hall] | 2.52 ± 0.1
24 | SAGGMIRIERDGDRLTIEIHLPEGEELTPEQLEELARALLEELGPDARVVRVERLEDGTVRIEVELPSAGGS [r8_103_TrROS_Hall] | 2.35 ± 0.07
25 | SASSELLELLKALPTPEVPTDPIFTLEEPDRPIRVLSYDPETGLVTMLIPGTGARLIRDPASGTYTLLPSAG [r14_359_JUSTAS] | 0.92 ± 0.071
26 | SAGGSAGGSASSMVTVTVSVSPDEGDEEVAKEIAKELGRPDAKVTKITYDPATGTLTITLVDSAGGSAGGSA [r18_481_JUSTAS] | 1.53 ± 0.062
27 | SAGGSADELVVRLRVRDPRTERPLEIDLPVPASLTPEEAIARAERLAAAFRSLGLETEVEVEPVPRSAGGSA [r15_268_TrMRF] | 1.88 ± 0.042
28 | SAGGSAGGSAGGMKVIPFESLEEAREYIKANPDENVLLEFPDALLELTKPDDIKKIEKKPSAGGSAGGSAGG [r7_532_JUSTAS] | 0.36 ± 0.12
29 | SAGGSAGGGSLSKPKKYELVATFTFPGTVEEAKEFLEKLLPEDWKVEIEETPDFLKIKLYKRLDSAGGSAGG [r6_952_TrMRF] | 4.07 ± 0.049
30 | SAGGSAGGSGKVLVLPLPGGTVEEVKEIAKEIKEKYPNAKVTTEVFPTPEGDLVAVVTLENPESAGGSAGGS [r12_425_TrMRF] | -0.0724 ± 0.087
31 | SPKIKIVSVSRTAGGALVALLELEDRPITLYRPLALPYILASAEIPGTNEVKTILAPSSISPEEIAKLLGSA [r9_522_TrMRF] | 1.75 ± 0.09
